The subject of this test is phospho-pEY. As to the kind of experiment: Protein tyrosine phosphatase activity assay with phospho-pEY substrate. Format: biochemical. The conditions noted are these: 5 nM phospho-pEY, 45 min. As to the method: Several proteins were produced in an in vitro transcription and translation reaction using 1–150 ng of plasmid DNA including: Mock Luciferase (Promega); protein tyrosine phosphatase; non-receptor type 2 (PTP-N2, IMAGE ID# 3872164, Incyte Genomics, CA); and fer (fms/fps related) protein kinase, testis specific 2 clone (Fert2, IMAGE ID# 4485050, Incyte Genomics, CA). The proteins were produced and immobilized on SA coated NPT-IPR plates, as described in Example 7. […]
A tyrosine phosphate substrate was prepared by enzymatically phosphorylating poly(Glu, Tyr). […] The phosphorylation in the product was determined by transferring serially diluted reaction mixture to a streptavidin-coated NPT IPR plate and assaying for phosphorylated-poly(Glu, Tyr) as described in previous examples (see, e.g., Example 7).
The phosphorylated poly(Glu, Tyr) was used as a substrate to measure the phosphatase activity of the purified and immobilized PTP-N2. […] Following this incubation 45 μl of this mixture was transferred to a streptavidin-coated NPT IPR plate and the solution analyzed for phospho-poly(Glu, Tyr) content as described above.

B1: PTP-N2: protein tyrosine phosphatase, non-receptor type 2, IMAGE ID# 3872164 (protein, UniProt P17706 1-415, looked up)
Tyrosine-protein phosphatase …: MPTTIEREFEELDTQRRWQPLYLEIRNESHDYPHRVAKFPENRNRNRYRDVSPYDHSRVKLQNAENDYINASLVDIEEAQRSYILTQGPLPNTCCHFWLMVWQQKTKAVVMLNRIVEKESVKCAQYWPTDDQEMLFKETGFSVKLLSEDVKSYYTVHLLQLENINSGETRTISHFHYTTWPDFGVPESPASFLNFLFKVRESGSLNPDHGPAVIHCSAGIGRSGTFSLVDTCLVLMEKGDDINIKQVLLNMRKYRMGLIQTPDQLRFSYMAIIEGAKCIKGDSSIQKRWKELSKEDLSPAFDHSPNKIMTEKYNGNRIGLEEEKLTGDRCTGLSSKMQDTMEENSESALRKRIREDRKATTAQKVQQMKQRLNENERKRKRWLYWQPILTKMGFMSVILVGAFVGWTLFFQQNAL
For the molecule B1, the ECL signal was 70,574.

Values taken from patent publication US7063946B2, “Methods, reagents, kits and apparatus for protein function analysis” (Meso Scale Technologies, LLC., priority 2001, dated 2006).
